Test results reported in patent publication US20230189773A1, “ENGINEERED CELLS, ANIMAL MODELS, AND USES THEREOF FOR MODELING LOW GRADE GLIOMA (LGG)” (Washington University, priority 2021, published 2023).
“Also recorded” adds a separate entry of the source.

B1: recombinant murine Cxcl10 protein: murine recombinant Cxcl10 (PeproTech), a cytokine belonging to the CXC chemokine family (protein, UniProt P17515 22-98, looked up)
C-X-C motif chemokine 10: IPLARTVRCNCIHIDDGPVRMRAIGKLEIIPASLSCPRVEIIATMKKNDEQRCLNPESKTIKNLMKAFSQKRSKRAP

Assays:
NF1-null iNPC-LGGs = test: PD0325901 treatment of Rag1-/- mice harboring NF1-null iNPC-LGGs; type: in vivo, mouse; details: 5 mg/kg/day intraperitoneal, 6 days a week, four weeks, from 1 mpi
Description: (§1) Twenty 4-week-old Rag1^−/− mice of both sexes harboring NF1-null iNPC-LGGs 1 month post-injection were intraperitoneally injected either with 10% DMSO in saline or with 5 mg/kg/day PD0325901 (Sigma-Aldrich), 6 days a week, for a total of four weeks. Treated mice were collected for histopathologic analysis. For in vitro experiments, iNPCs, iGRPs and iOPCs were treated with 10 nM PD0325901 for 24 h prior to immunocytochemical analysis.
Injected mice were transcardially perfused at 1, 3 or 6 months post-injection, initially with Ringer's solution, and then followed by ice-cold 4% paraformaldehyde. Whole mouse brains were harvested, post-fixed in 4% PFA and dehydrated in 70% ethanol. Dehydrated samples were then paraffin-embedded and serially sectioned (5 μm). Hematoxylin and eosin (H&E), as well as antibody immunohistochemical staining, were performed using the primary antibodies, Vectastain ABC kit (Vector Laboratories) and appropriate biotinylated secondary antibodies provided in TABLE 1.
Immunostaining was performed using the primary antibodies listed in TABLE 1 with appropriate Alexa Fluor-conjugated secondary antibodies. Bis-benzamide (Hoechst) was used as a nuclear counterstain.

[1] = test system: NF1-null iNPCs, iGRPs and iOPCs; test: In vitro PD0325901 treatment of iNPCs, iGRPs and iOPCs (Ki67, cleaved caspase-3 immunocytochemistry); type: cell-based, human; details: 10 nM, 24 h
Description: as §1
(§2) Immunocytochemistry was performed on hiPSCs, iNPCs, iGRPs, iOPCs and astrocytes using the primary antibodies described in Additional file 1: Table 51. […] Appropriate secondary Alexa-Fluor-conjugated secondary antibodies diluted to 1:200 were employed and bis-benzamide (Hoechst) was used as a nuclear counterstain. Cells were mounted with Immu-mount (Fisher) and imaged on a Leica DMi1 fluorescent microscope using the Leica LAS X software, as per manufacturer's instructions.

NF1-null iNPCs [2] = test: Direct cell count of NF1-null iNPCs after recombinant Cxcl10; type: cell-based, human; details: for decrease in cell number (direct cell count): NF1-null iNPCs
Description: RAS activity (ThermoFisher), cAMP (Fisher) detection, BrdU proliferation assays (Roche) and direct cell counting were performed according to the manufacturer's instructions. Cxcl10 (Ray Biotech) ELISA assays were performed according to the manufacturer's instructions. Each assay was performed using a minimum of three independently generated biological replicates.
(§3) Cxcl10 cDNA (Sino Biological) and lentiviral packaging vectors, or KIAA1549:BRAF adenoviral DNA, were transfected in HEK293T cells using Fugene HD (Promega) following the manufacturer's instructions. Viral supernatants were collected 48 h post-transfection, filtered, and used to directly infect iNPCs and iGRPs for 24 h. Cxcl10-GFP expression was confirmed by Western blotting as previously described. KIAA1549:BRAF-infected cells were puromycin-selected for 2 weeks prior to further expansion. Infected cells were used for intracranial injections in Rag1^−/− neonatal mice. For cell proliferation, cell death and differentiation analyses, iNPCs were treated with 25 or 100 pg/mL of murine recombinant Cxcl10 (PeproTech) for 24 h. Each experiment was performed a minimum of three times on independently generated samples.

NF1-null iNPCs [3] = test: Cleaved caspase-3+ cells (programmed cell death) in NF1-null iNPCs after recombinant Cxcl10; type: cell-based, human; details: for increase in programmed cell death (cleaved caspase-3+ cells): NF1-null iNPCs
Description: as §2, §3

NF1-null iNPCs [4] = test: GFAP+ astrocytic differentiation of NF1-null iNPCs after recombinant Cxcl10; type: cell-based, human; details: for increase in GFAP+ astrocytic differentiation: NF1-null iNPCs
Description: as §2, §3

[5] = relative to vehicle-treated LGGs
[6] = 25 pg/mL recombinant Cxcl10, 24 h
[7] = 100 pg/mL recombinant Cxcl10, 24 h
[8] = range over ectopic Cxcl10 expression or 25 or 100 pg/mL recombinant Cxcl10 (FIG. 19A)
[9] = range over ectopic Cxcl10 expression and recombinant Cxcl10 treatments (FIG. 19B)

Row | Molecule | presence of Ku80+ iNPC-LGGs after treatment (NF1-null iNPC-LGGs) | tumor cell apoptosis (TUNEL+ cells) (NF1-null iNPC-LGGs; [5]) | tumor cell proliferation (Ki67+ cells) (NF1-null iNPC-LGGs; [5]) | apoptosis (cleaved caspase-3) [1] | cell proliferation (Ki67) [1] | decrease in cell number (direct cell count) (NF1-null iNPCs [2]; [6]) | decrease in cell number (direct cell count) (NF1-null iNPCs [2]; [7]) | NF1-null iNPC cell numbers decrease (direct cell count) (NF1-null iNPCs [2]; [8]) | increase in programmed cell death (cleaved caspase-3+ cells) (NF1-null iNPCs [3]; [6]) | increase in programmed cell death (cleaved caspase-3+ cells) (NF1-null iNPCs [3]; [7]) | percent of cleaved caspase-3+ cells increases (NF1-null iNPCs [3]; [8]) | increase in GFAP+ astrocytic differentiation (NF1-null iNPCs [4]; [6]) | increase in GFAP+ astrocytic differentiation (NF1-null iNPCs [4]; [7]) | differentiated GFAP+ cells undergoing apoptosis (cleaved caspase-3+) (NF1-null iNPCs [4]; [9]) | share of total cells undergoing apoptosis (cleaved caspase-3+) that are GFAP+ (NF1-null iNPCs [4]; [9])
1 | O=C(NOC[C@H](O)CO)c1ccc(F)c(F)c1Nc1ccc(I)cc1F [PD0325901] | still detectable | increased hiPSC-LGG cell apoptosis; also recorded: increased tumor cell apoptosis | reduced tumor cell proliferation; also recorded: decreased | increased hiPSC-LGG cell apoptosis; also recorded: increases apoptosis | reduced proliferation; also recorded: decreased cell proliferation; also recorded: decreases proliferation |  |  |  |  |  |  |  |  |  | 
2 | B1 |  |  |  |  |  | 9% | 13% | 9-20% | 4.6 fold | 20.5 fold | 8.3-20.5 fold | 8.2 fold | 20.5 fold | 95-100% | 83.3-88.8%
